Biological target: HCMV pentameric complex gH/gL/pUL128/pUL130/pUL131A (wild type Pentamer) (HCMV strain Merlin) (UniProt Q6SW67)
Test: method not stated

Substance: 8I21 with HCDR3 Trp105 mutated to alanine (Fab)
- fold decrease in binding affinity (against unmutated 8I21): > 150 fold
